According to the supplement of paper PMC7877785:
± gives the uncertainty stated by the source.

Experiment: self-splicing fitness, log relative to wild type (ln ratio); higher = more splicing; Tetrahymena group I intron in knt gene, E. coli kanamycin selection, DiMSum; sequences stand for … in CUCUCU…GGAGGGAAAAGUUAUCAGGCAUGCACCUGGUAGCUAGUCUUUAAACCAAUAGAUUGCAUCGGUUUAAAAGGCAAGACCGUCAAAUUGCGGGAAAGGGGUCAACAGCCGUUCAGUACCAAGUCUCAGGGGAAACUUUGAGAUGGCCUUGCAAAGGGUAUGGUAAUAAGCUGACGGACAUGGUCCUAACCACGCAGCCAAGUCCUAAGUCAACAGAUCUUCUGUUGAUAUGGAUGCAGUUCACAGACUAAAUGUCGGUCGGGGAAGAUGUAUUCUUCUCAUAAGAUAUAGUCGGACCUCUCCUUAAUGGGAGCUAGCGGAUGAAGUGAUGCAACACUGGAGCCGCUGGGAACUAAUUUGUAUGCGAAAGUAUAUUGAUUAGUUUUGGAGUACUCGUGGUCG
Outline: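 Fitness was computed with DiMSum as the error-weighted combination of replicate fold changes, kanamycin versus none, each normalised to wild type. The library randomised all eight intron nucleotides of the P1ex region, with the intron placed in the knt kanamycin-resistance gene on pET-22b(+) in E. coli BL21(DE3). Six replicate transformations were grown overnight at 37°C or 30°C on LB agar with or without 25 μg/mL kanamycin, plus 100 μg/mL carbenicillin, 50 μM IPTG and 0.2% rhamnose. Pooled colonies were amplicon-sequenced on an Illumina HiSeq 2500.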

Sequence	self-splicing fitness (ln) (30 °C)	self-splicing fitness (ln) (37 °C)
GCAAAGCAAUAUUACGUACG	-1.13 ± 0.083	-1.84 ± 0.13
CUACAGCAAUAUUACGUUCC	-2.48 ± 0.22	–
GUGUAGCAAUAUUACGAUUG	-4.18 ± 0.3	-2.18 ± 0.2
CUCAAGCAAUAUUACGCCGA	–	-1.29 ± 0.34
CGCAAGCAAUAUUACGAUCU	-1.61 ± 0.073	-0.39 ± 0.085
ACUCAGCAAUAUUACGCACA	-0.835 ± 0.083	-0.539 ± 0.1
GUUAAGCAAUAUUACGACAU	-0.0837 ± 0.013	0.118 ± 0.033
GGGCAGCAAUAUUACGAACC	-0.749 ± 0.29	-0.806 ± 0.31
CCCAAGCAAUAUUACGCAGU	-3.15 ± 0.14	-2.32 ± 0.18
AGUGAGCAAUAUUACGCGUU	-3.04 ± 0.19	-2.18 ± 0.18
AAUGAGCAAUAUUACGUCCA	-2.41 ± 0.19	-2.27 ± 0.3
UCCCAGCAAUAUUACGUAUG	-3.3 ± 0.16	-2.2 ± 0.16
GUUGAGCAAUAUUACGCUUU	-3.95 ± 0.48	-2.45 ± 0.26
CAGUAGCAAUAUUACGCGGU	-2.74 ± 0.12	-2.94 ± 0.19
AAAUAGCAAUAUUACGUACA	-1.23 ± 0.071	-0.523 ± 0.092
GAGGAGCAAUAUUACGGUCC	-2.95 ± 0.16	-0.994 ± 0.2
CAGGAGCAAUAUUACGCGGC	-1.43 ± 0.36	-1.14 ± 0.41
GUAGAGCAAUAUUACGAGAU	-4.13 ± 0.23	-0.661 ± 0.16
AACGAGCAAUAUUACGAUGC	-2.93 ± 0.2	-1.52 ± 0.26

Sequence	self-splicing fitness (ln) (30 °C)	self-splicing fitness (ln) (37 °C)
CUCAAGCAAUAUUACGCGUG	-3.3 ± 0.21	-3.41 ± 0.43
UGAGAGCAAUAUUACGUUCA	-0.924 ± 0.12	-0.794 ± 0.12
UCAGAGCAAUAUUACGUACU	-3.35 ± 0.34	-2.24 ± 0.3
CCCAAGCAAUAUUACGUCUU	-3.41 ± 0.11	-2.25 ± 0.12
CGCAAGCAAUAUUACGCAAC	-3.19 ± 0.36	-3.11 ± 0.37
UCUCAGCAAUAUUACGGAGA	-3.23 ± 0.41	-3.43 ± 0.39
AGCAAGCAAUAUUACGUUCC	-1.21 ± 0.12	-0.544 ± 0.13
UUAUAGCAAUAUUACGCGUG	-0.968 ± 0.11	-0.618 ± 0.13
UUCGAGCAAUAUUACGUCAU	-2.56 ± 0.21	-3.46 ± 0.46
CGGUAGCAAUAUUACGAGGU	-3.59 ± 0.25	-2.03 ± 0.25
CCGAAGCAAUAUUACGAAAG	-1.21 ± 0.073	-0.965 ± 0.092
GAUUAGCAAUAUUACGGAUA	-1.36 ± 0.17	0.0656 ± 0.2
ACCUAGCAAUAUUACGUUUA	-3.18 ± 0.17	-2.68 ± 0.17
CCGAAGCAAUAUUACGAGAA	-2.48 ± 0.47	-1.17 ± 0.49
UUUUAGCAAUAUUACGUCUG	-0.654 ± 0.14	-0.153 ± 0.16
AGCAAGCAAUAUUACGUAGU	-3.18 ± 0.18	-2.14 ± 0.19
GCAAAGCAAUAUUACGAAUU	-2.67 ± 0.15	-0.942 ± 0.11
GGAUAGCAAUAUUACGUCUC	-2.52 ± 0.25	-2.16 ± 0.46
AUAGAGCAAUAUUACGCAUG	-1.85 ± 0.16	-1.42 ± 0.23
